Experimental data as given in patent US20150299277A1, “AGENT FOR TREATING OR PREVENTING SYSTEMIC INFLAMMATORY RESPONSE SYNDROME” (THE UNIVERSITY OF TOKYO, priority 2012, published 2015).
Entries after “also recorded” stand apart in the source; their conditions may differ.

B1: C-terminal domain of PTX3: C-terminal domain human PTX3 (179-381 amino acids), Myc- and His-tagged (protein)
chain: CETAILFPMRSKKIFGSVHPVRPMRLESFSACIWVKATDVLNKTILFSYGTKRNPYEIQLYLSYQSIVFVVGGEENKLVAEAMVSLGRWTHLCGTWNSEEGLTSLWVNGELAATTVEMATGHIVPEGGILQIGQEKNGCCVGGGFDETLAFSGRLTGFNIWDSVLSNEEIRETGGAESCHIRGNIVGWGVTEIQPHGGAQYVS
modifications: left off: small tags and cut ends
notes: C-terminal domain human PTX3 (179-381 amino acids), Myc- and His-tagged
B2: N-terminal domain that lost the oligomer formation capacity: N-terminal domain human PTX3 wherein the 47th, 49th, 103rd cysteine residues were replaced with serine residue (protein)
chain: ENLYFQGENSDDYDLMYVNLDNEIDNGLHPTEDPTPSDSGQEHSEWDKLFIMLENSQMRERMLLQATDDVLRGELQRLREELGRLAESLARPSAPGAPAEARLTSALDELLQATRDAGRRLARMEGAEAQRPEEAGRALAAVLEELRQTRADLHAVQGWAARSWLPAG
modifications: left off: small tags and cut ends
notes: N-terminal domain human PTX3 wherein the 47th, 49th, 103rd cysteine residues were replaced with serine residue
B3: CRP: C-reactive protein, short pentraxin used as comparator (protein, UniProt P02741 19-224, looked up)
C-reactive protein: QTDMSRKAFVFPKESDTSYVSLKAPLTKPLKAFTVCLHFYTELSSTRGYSIFSYATKRQDNEILIFWSKDIGYSFTVGGSEILFEVPEVTVAPVHICTSWESASGIVEFWVDGKPRVRKSLKKGYTVGAEASIILGQEQDSFGGNFEGSQSLVGDIGNVNMWDFVLSPDEINTIYLGGPFSPNVLNWRALKYEVQGEVFTKPQLWP

Experiments:
each histone [1] = assay: ELISA binding assay; parameters: species or system human; conditions: immobilized recombinant histone
Description: Recombinant human histone (NEB) was adjusted to a concentration of 1 μg/mL in TBS, added to a 96 well ELISA plate, and immobilized at 4° C. overnight. The solution was discarded, a blocking buffer (TBS, 0.1% Triton-X100, 1% BSA) was added, and the plate was incubated at room temperature for 2 hr. The plate was washed four times with a wash buffer (TBS, 0.1% Triton-X100), recombinant PTX3 diluted to various concentrations with the blocking buffer was added to each well, and reacted at room temperature for 1 hr. After washing four times with the wash buffer, HRP-labeled antibody diluted with the blocking buffer was added, and reacted at room temperature for 1 hr. After washing four times with the wash buffer, TMB solution was added to carry out a color development reaction for 30 min, and the absorbance at 450 nm was measured. […]
The binding level between immobilized each recombinant histone and tag-free recombinant human PTX3 (rhPTX3) was measured by binding assay (ELISA). […] ELISA was performed with duplicate wells for each point, and means and standard deviations were calculated from three independent experiments.
The binding level between immobilized each recombinant histone and a tagged human PTX3 fragment was measured by binding assay (ELISA). […] ELISA was performed with duplicate wells for each point, and means and standard deviations were calculated from three independent experiments.

each histone variant = assay: Aggregation of each histone variant and PTX3 fragment, absorbance at 310 nm; type: binding; conditions: histone variant 50 μg/mL, PTX3 fragment 30 μg/mL
Description: Each histone variant (50 μg/mL) and each PTX3 fragment (30 μg/mL) were mixed, and the absorbance at the wavelength of 310 nm was measured. Before mixing, samples were dialyzed against 4 mM CaCl2-containing TBS.

Calf Thymus Histones = assay: Aggregation with histone, absorbance at 310 nm; type: binding; conditions: mixture with Calf Thymus Histones
Description: The lower left figure and the lower right figure show the measurement results of absorbance at 310 nm of a mixture of a wild-type or oligomer formation capacity-deficient mutant of PTX3 N-terminal domain having each concentration and 0.1 mg/mL Calf Thymus Histones at 1:1 vol.
The aggregation activity of PTX3 and other pentraxins to histone was evaluated. Calf Thymus Histones (50 μg/mL) were mixed with a PTX3 fragment or the other pentraxin at each concentration, and the absorbance at the wavelength of 310 nm was measured. Before mixing, samples were dialyzed against 4 mM CaCl2-containing TBS.

each histone [2] = assay: BIAcore / surface plasmon resonance (SPR) measurement; type: binding, human; conditions: immobilized recombinant histone
Description: For the measurement, BIAcore 3000 or T200 (GE Healthcare) was used. Recombinant human histone was immobilized on CM5 sensor chip by an amine coupling kit (GE Healthcare). The reaction with recombinant PTX3 was performed using a buffer (150 mM NaCl, 20 mM HEPES, 0.005% surfactant P20 (pH 7.4)) at a flow rate of 20 μl/min. Measurement was performed using the buffer containing […]. The sensor chip was regenerated in IM sodium acetate (10 μL, pH 7.2) and 10 mM NaOH (10 μL).
The binding of immobilized each recombinant histone, and Myc- and His-tagged human PTX3 fragment was measured by surface plasmon resonance (SPR). The highest concentration of each PTX3 was as follows. full-length PTX3: 1 nM, N-terminal domain of PTX3: 5 nM, C-terminal domain of PTX3: 50 nM. The assay buffer contained 4 mM CaCl2 (Ca^2+) or 4 mM EDTA/EGTA. The affinity measured by SPR was calculated from three experiments.

[3] = system: Calf Thymus Histones on HUVEC; assay: Cytotoxic assay: suppression of histone cytotoxicity on HUVEC; type: cell-based, human; conditions: 100 μg/mL Calf Thymus Histones, 40 μg/mL protein, 1 hr, PI staining, FACS
Description: After culturing for 1 hr in a medium concurrently containing 100 μg/mL Calf Thymus Histones and APC (200 nM), PTX3 (40 μg/mL), CRP (40 μg/mL) or SAP (40 μg/mL), the level of toxic activity was measured by FACS.
Normal human umbilical vein endothelial cells (HUVECs) were cultured in EGM2 medium (Clonetics). The cells after culture were washed with PBS, added with Opti-MEM medium containing an product of incubation of activated protein C (APC), PTX3, C reactive protein (CRP) or Serum amyloid P component (SAP) with histone for 1 hr, and the cells were further cultured for 1 hr. Propidium iodide (PI) was added to the medium after culture at a final concentration of 10 μg/mL, and the cells were stained for 10 min. The cells were washed with PBS, detached and analyzed by flow cytometry.
The histone cytotoxicity on HUVEC was evaluated by propidium iodide (PI) staining.
Lastly, capacity of suppressing the cytotoxic activity of histone was confirmed. Since this experiment requires a certain amount of protein and an endotoxin-elimination as treatment, a protein was expressed and purified at a 500 mL culture scale, and subjected to an endotoxin-elimination treatment (FIG. 18). In the case of PTX3 N-terminal domain, about 10 mg was obtained at a 500 mL culture scale, and a loss by the endotoxin-elimination treatment was scarcely observed. […]

Molecule | bindability to each histone (binding assay) (each histone [1]) | aggregation with each histone variant, absorbance at 310 nm (each histone variant) | aggregation with Calf Thymus Histones, absorbance at 310 nm (Calf Thymus Histones) | affinity for each histone by SPR (each histone [2]) | suppression of toxic activity of Calf Thymus Histones on HUVEC [3]
B1 | weak | aggregated | weaker than that of the full-length PTX3 and N-terminal domain of PTX3 | full-length PTX3>N-terminal domain>C-terminal domain | –
B2 | decrease; also recorded: scarcely bound | – | decrease; also recorded: decreased aggregation activity | affinity decreased as compared to the wild-type | –
B3 | – | – | no aggregation capacity; also recorded: scarcely showed an aggregation activity | – | do not have such suppressive effect
